Results taken from US8309523 (VIB VZW, dated 2012).

T1: p76 fragment of MALT1 (Avi-tagged expression construct) (human, UniProt Q9UDY8 150-824, Avi-tag biotinylated in vivo by co-expressed BirA)
T1 construct: domain: p76 cleavage fragment; Lacks the N-terminal death domain; also called MALT1 p76; 76 kDa C-terminal fragment
T1 sequence (looked up): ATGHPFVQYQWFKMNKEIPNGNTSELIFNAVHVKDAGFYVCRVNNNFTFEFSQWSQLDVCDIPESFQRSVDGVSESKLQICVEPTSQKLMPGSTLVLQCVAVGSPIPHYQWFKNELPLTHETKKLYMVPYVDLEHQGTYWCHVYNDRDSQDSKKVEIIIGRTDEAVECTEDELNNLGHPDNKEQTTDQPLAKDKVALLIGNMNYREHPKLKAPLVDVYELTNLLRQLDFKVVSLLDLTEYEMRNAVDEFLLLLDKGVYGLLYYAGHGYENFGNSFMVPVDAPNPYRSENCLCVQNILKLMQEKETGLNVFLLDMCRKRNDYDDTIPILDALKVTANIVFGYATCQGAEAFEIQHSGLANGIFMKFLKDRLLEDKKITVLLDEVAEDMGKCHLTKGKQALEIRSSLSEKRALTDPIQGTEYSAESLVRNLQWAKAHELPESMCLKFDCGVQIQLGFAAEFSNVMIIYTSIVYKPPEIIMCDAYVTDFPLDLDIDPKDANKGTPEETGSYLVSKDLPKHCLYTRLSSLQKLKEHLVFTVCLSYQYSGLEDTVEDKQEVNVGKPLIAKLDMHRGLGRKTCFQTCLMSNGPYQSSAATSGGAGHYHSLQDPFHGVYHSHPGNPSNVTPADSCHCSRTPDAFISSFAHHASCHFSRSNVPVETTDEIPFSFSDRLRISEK

T2: p76 T6Ig-m (E313A/E316A) (human, UniProt Q9UDY8 150-824, Avi-tag biotinylated in vivo by co-expressed BirA)
T2 construct: domain: p76 cleavage fragment
T2 sequence (looked up): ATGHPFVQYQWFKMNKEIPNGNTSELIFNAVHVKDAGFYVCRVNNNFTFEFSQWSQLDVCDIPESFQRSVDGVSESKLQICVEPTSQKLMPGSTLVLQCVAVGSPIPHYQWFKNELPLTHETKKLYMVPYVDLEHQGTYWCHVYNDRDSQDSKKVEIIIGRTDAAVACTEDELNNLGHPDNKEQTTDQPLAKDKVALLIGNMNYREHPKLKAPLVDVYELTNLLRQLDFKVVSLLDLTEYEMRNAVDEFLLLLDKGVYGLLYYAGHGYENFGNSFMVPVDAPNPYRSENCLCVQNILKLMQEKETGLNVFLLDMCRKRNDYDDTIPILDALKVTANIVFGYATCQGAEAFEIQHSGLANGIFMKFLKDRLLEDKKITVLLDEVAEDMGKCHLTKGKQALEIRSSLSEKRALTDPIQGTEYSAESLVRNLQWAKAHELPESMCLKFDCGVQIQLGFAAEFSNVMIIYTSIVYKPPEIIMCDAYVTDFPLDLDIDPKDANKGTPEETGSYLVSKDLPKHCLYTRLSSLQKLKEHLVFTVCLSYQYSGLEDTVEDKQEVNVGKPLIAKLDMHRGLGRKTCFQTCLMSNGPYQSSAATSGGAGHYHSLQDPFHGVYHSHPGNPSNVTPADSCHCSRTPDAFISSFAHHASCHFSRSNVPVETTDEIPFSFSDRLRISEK

T3: p76 T6Ig/C-m (E313A/E316A and E806A) (human, UniProt Q9UDY8 150-824, Avi-tag biotinylated in vivo by co-expressed BirA)
T3 construct: domain: p76 cleavage fragment
T3 sequence (looked up): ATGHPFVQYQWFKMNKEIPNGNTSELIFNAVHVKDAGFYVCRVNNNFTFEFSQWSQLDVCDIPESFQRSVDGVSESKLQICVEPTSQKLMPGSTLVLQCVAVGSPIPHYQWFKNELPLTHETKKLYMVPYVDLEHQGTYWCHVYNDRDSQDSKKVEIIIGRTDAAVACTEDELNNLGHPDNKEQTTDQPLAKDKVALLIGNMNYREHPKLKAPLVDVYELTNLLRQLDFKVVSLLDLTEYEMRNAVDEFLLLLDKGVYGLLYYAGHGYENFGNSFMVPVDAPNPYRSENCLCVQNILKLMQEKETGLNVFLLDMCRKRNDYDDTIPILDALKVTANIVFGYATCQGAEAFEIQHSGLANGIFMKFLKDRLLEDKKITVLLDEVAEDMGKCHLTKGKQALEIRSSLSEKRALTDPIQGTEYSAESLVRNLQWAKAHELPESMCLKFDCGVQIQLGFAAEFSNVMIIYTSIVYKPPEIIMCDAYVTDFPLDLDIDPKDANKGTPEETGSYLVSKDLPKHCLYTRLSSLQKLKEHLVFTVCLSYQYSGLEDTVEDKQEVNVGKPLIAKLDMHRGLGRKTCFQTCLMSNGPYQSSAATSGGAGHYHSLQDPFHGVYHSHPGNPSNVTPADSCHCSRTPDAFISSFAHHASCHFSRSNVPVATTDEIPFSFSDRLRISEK


What was measured:
[1] = molecular target: T1, p76 fragment of MALT1 (Avi-tagged …); experiment: bio-IP from HEK293T cells, anti-BCL10 immunoblot
Source text: (§1) FIG. 5: p76 activates NFκB via TRAF6. […] Panel B) TRAF6 mediates NFκB signaling by p76. Top: NFκB-reporter assays of HEK293T cells transiently expressing MALT1, p76 and mutants or MALT1-C. Bottom: MALT1, p76 or MALT1-C, transiently expressed in HEK293T cells, were purified via bio-IPs and immunoblotted with anti-MALT1 (to show equal expression), anti-TRAF6 and anti-BCL10. Panel C) p76 induces polyubiquitination of IKKγ. Immunoblot analysis of bio-IP and IKKγ-IP of 293T cells transfected with pcD-F-IKKγ and pcd-HA-Ub in combination with indicated Avi-tagged MALT1 constructs. Panel D) BCL10 is not involved in NFκB signaling by p76. NFκB reporter assays of HEK-293T cells transfected with siRNA duplexes against MALT1, BCL10 or GFP (as control) followed by transient transfection with p76. The expression levels were determined by immunoblot with anti-MALT1 and anti-BCL10. NFκB-dependent luciferase activity […] is shown as fold induction of vector-transfected cells and represents the mean+/−S.D. of three independent experiments.

[2] = molecular target: T2, p76 T6Ig-m (E313A/E316A); experiment: bio-IP from HEK293T cells, anti-TRAF6 immunoblot
Source text: as §1
(§2) NFκB activation by MALT1 requires TRAF6 binding via two distinct sites (19), which are both present in the p76 cleavage fragment. Mutation of one TRAF6 binding site, either E313A/E316A (T6Ig-m) or E806A (T6C-m), abolished the potential of p76 to activate NFκB signaling in 293T cells (FIG. 5, Panel B). […] Furthermore, NFκB activation by p76 in 293T cells was associated with increased polyubiquitination of IKKγ (FIG. 5, Panel C).

[3] = molecular target: T3, p76 T6Ig/C-m (E313A/E316A and E806A); experiment: bio-IP from HEK293T cells, anti-TRAF6 immunoblot
Source text: as §1, §2

Binder	binding result [1]	binding result [2]	binding result [3]
BCL10 (other, UniProt O95999 1-233, looked up, Co-precipitated from lysates of human cell lines) MEPTAPSLTEEDLTEVKKDALENLRVYLCEKIIAERHFDHLRAKKILSREDTEEISCRTSSRKRAGKLLDYLQENPKGLDTLVESIRREKTQNFLIQKITDEVLKLRNIKLEHLKGLKCSSCEPFPDGATNNLSRSNSDESNFSEKLRASTVMYHPEGESSTTPFFSTNSSLNLPVLEVGRTENTIFSSTTLPRPGDPGAPPLPPDLQLEEEGTCANSSEMFLPLRSRTVSRQ	no binding	–	–
TRAF6 (other, UniProt Q9Y4K3 1-522, looked up, Co-precipitated from lysates of human cell lines) MSLLNCENSCGSSQSESDCCVAMASSCSAVTKDDSVGGTASTGNLSSSFMEEIQGYDVEFDPPLESKYECPICLMALREAVQTPCGHRFCKACIIKSIRDAGHKCPVDNEILLENQLFPDNFAKREILSLMVKCPNEGCLHKMELRHLEDHQAHCEFALMDCPQCQRPFQKFHINIHILKDCPRRQVSCDNCAASMAFEDKEIHDQNCPLANVICEYCNTILIREQMPNHYDLDCPTAPIPCTFSTFGCHEKMQRNHLARHLQENTQSHMRMLAQAVHSLSVIPDSGYISEVRNFQETIHQLEGRLVRQDHQIRELTAKMETQSMYVSELKRTIRTLEDKVAEIEAQQCNGIYIWKIGNFGMHLKCQEEEKPVVIHSPGFYTGKPGYKLCMRLHLQLPTAQRCANYISLFVHTMQGEYDSHLPWPFQGTIRLTILDQSEAPVRQNHEEIMDAKPELLAFQRPTIPRNPKGFGYVTFMHLEALRQRTFIKDDTLLVRCEVSTRFDMGSLRREGFQPRSTDAGV	–	binds	no binding
